T1: preactivated arrestin3 (truncated after residue 392) (bovine, UniProt P32120)
T1 chain: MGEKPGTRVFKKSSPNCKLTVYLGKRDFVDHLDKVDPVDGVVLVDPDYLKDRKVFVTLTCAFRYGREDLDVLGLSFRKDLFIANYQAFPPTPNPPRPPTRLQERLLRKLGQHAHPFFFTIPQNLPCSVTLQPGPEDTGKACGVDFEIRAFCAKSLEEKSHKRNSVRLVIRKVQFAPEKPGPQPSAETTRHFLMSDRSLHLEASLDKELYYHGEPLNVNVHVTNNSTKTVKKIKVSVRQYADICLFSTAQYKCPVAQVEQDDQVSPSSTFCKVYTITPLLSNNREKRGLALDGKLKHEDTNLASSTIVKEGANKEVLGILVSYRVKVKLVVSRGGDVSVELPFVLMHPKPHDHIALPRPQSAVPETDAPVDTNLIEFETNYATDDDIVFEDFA

T2: biotinylated Arr3* loaded with inositol hexakisphosphate (IP6) (bovine, UniProt P32120, biotin (EZ-link sulfo-NHS-Biotin; sites not stated))
T2 chain: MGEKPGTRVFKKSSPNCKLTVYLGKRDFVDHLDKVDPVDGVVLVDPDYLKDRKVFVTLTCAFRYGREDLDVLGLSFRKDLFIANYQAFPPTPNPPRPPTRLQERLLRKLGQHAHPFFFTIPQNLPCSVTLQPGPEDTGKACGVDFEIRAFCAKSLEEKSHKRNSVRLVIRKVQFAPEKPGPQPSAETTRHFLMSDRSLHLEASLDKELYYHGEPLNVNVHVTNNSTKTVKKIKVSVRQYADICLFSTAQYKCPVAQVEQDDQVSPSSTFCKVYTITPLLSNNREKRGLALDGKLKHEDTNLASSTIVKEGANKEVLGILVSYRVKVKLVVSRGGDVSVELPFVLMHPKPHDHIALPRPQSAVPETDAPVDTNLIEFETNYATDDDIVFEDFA

B1: Fab7 (antigen binding fragment that recognizes active arrestin2 and arrestin3) (Fab, V domains shown)
VH: EVQLVESGGGLVQPGGSLRLSCAASGFNVSSSYIHWVRQAPGKGLEWVASISSYYGYTYYADSVKGRFTISADTSKNTAYLQMNSLRAEDTAVYYCARKSMYHRGWGWLSWVYGAMDYWGQGTLVTVSS
VL: DIQMTQSPSSLSASVGDRVTITCRASQSVSSAVAWYQQKPGKAPKLLIYSASSLYSGVPSRFSGSRSGTDFTLTISSLQPEDFATYYCQQSYYYPITFGQGTKVEIK

Columns and labels:
[1] = biological target: GRK5-phosphorylated ACKR3·CXCL12_(LRHQ) (UniProt P25106); experiment: pull-down
[2] = biological target: T1, preactivated arrestin3 (truncated after …); experiment: ELISA
[3] = biological target: T2, biotinylated Arr3* loaded with inositol …; experiment: ELISA

| Molecule | percent more pulled down than by pACKR3 (GRK2) [1] [%] | IC50 [2] [nM] | EC50 [3] [nM] |
| --- | --- | --- | --- |
| preactivated arrestin3 (truncated after residue 392) (from UniProt P32120 1-392) (domain or fragment) | 40 | – | – |
| preactivated arrestin2 (I386A, V387A, F388A mutations in its C-tail) (from UniProt P17870 1-418) (natural protein) | 30 | – | – |
| B1 | – | ~90 | ~10 |

Reference: paper PMC12445016 (Nature, 2025)
